Results on 1 molecule are retold here after patent publication US20050191706A1.

Assay [1] has as its target Lβ11H, Dβ57A. The experiment in a line: flow. To be noted: chains peptide; modification not given.
The target of assay [2] is Lβ26F. The experiment in a line: flow. Conditions: chains peptide; modification not given.

B1: bio-HA308-316 (peptide)
chain: PKYVKQNTLKLAT
For orientation: Kd means a measure of binding affinity in units of concentration. Consider B1, for which the Kd in assay [1] is 8.56 µM; in assay [2], 3.72 µM.
